Source: PMC11812572

Legend:
[1] = biological target: microtubules polymerised from porcine brain tubulin (GMPCPP-stabilised microtubules and seeds, and dynamic microtubules elongating or nucleated from Atto647N- or Atto647-tubulin) (porcine (endogenous in pig brain)) (UniProt P02550); experiment: TIRF microscopy; microtubules elongating from surface-immobilized GMPCPP-seeds severed by laser ablation in 40 nM mScarlet-NuMA^FL and 10 µM Atto647N-tubulin; NuMA microscopy buffer, 30°C; new minus and plus ends scored
Sequence of microtubules polymerised from porcine brain tubulin (GMPCPP-stabilised microtubules and seeds, and dynamic microtubules elongating or nucleated from Atto647N- or Atto647-tubulin) (porcine (endogenous in pig brain)) (P02550 other isoform, or with tags, fused parts or gaps, chain 1 of 2): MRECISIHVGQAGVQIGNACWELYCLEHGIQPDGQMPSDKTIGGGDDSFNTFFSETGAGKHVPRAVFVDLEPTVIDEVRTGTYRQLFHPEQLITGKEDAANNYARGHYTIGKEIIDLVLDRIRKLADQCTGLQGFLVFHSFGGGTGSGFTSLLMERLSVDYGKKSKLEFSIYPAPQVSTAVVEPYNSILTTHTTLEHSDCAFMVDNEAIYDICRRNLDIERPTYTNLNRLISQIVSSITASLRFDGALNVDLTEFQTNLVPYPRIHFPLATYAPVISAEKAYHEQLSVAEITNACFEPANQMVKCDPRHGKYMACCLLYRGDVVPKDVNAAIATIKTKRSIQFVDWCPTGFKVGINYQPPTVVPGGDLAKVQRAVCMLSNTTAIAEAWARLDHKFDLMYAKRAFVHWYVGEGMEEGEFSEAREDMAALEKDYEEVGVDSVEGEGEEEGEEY
Sequence of microtubules polymerised from porcine brain tubulin (GMPCPP-stabilised microtubules and seeds, and dynamic microtubules elongating or nucleated from Atto647N- or Atto647-tubulin) (porcine (endogenous in pig brain)) (chain, as listed by the source, chain 2 of 2): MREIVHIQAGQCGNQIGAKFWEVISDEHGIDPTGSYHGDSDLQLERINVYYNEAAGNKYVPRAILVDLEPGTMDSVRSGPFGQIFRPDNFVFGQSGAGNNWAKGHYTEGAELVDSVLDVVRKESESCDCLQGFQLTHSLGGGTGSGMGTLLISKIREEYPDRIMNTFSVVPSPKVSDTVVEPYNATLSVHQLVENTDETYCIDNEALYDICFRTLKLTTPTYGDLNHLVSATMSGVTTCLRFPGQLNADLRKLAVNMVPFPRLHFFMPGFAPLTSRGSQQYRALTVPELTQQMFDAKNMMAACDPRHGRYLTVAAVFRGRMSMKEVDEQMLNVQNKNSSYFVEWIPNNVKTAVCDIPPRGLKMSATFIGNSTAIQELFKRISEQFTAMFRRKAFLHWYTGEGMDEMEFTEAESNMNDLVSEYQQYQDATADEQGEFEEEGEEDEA

[2] = biological target: microtubules polymerised from porcine brain tubulin (GMPCPP-stabilised microtubules and seeds, and dynamic microtubules elongating or nucleated from Atto647N- or Atto647-tubulin) (porcine (endogenous in pig brain)) (UniProt P02550); experiment: TIRF microscopy; γTuRC nucleation assay: biotinylated mBFP-γTuRC immobilized on the surface, 10 µM Atto647-tubulin and 5-30 nM mScarlet-NuMA^FL; γTuRC-nucleated and spontaneously (solution-) nucleated microtubules compared; γTuRC microscopy buffer, 33°C

“mScarlet-tagged full-length human NuMA, mScarlet-NuMA^FL, Q14980-1 1-2115” was tested. Which percent of ablation-generated minus ends with NuMA bound [1] did it give?
The percent of ablation-generated minus ends with NuMA bound was 83%.

And the percent of minus ends of spontaneously nucleated microtubules with strong NuMA accumulation (highest NuMA concentration) [2]?
Its percent of minus ends of spontaneously nucleated microtubules with strong NuMA accumulation (highest NuMA concentration) is 93%.
